In patent US20240132578A1:

Experiments:
[1] = target: HIV-1 Env of isolate THR0.18 (HIV-1); test: cell-based or functional assay
[2] = target: HIV-1 Env of isolate MGRM-Chronic-B-011 (HIV-1); test: cell-based or functional assay
[3] = target: HIV-1 Env of isolate 94UG103 (pseudovirus) (HIV-1); test: cell-based or functional assay
[4] = target: HIV-1 Env of isolate MGRM-Chronic-B-017 (HIV-1); test: cell-based or functional assay
[5] = target: HIV-1 Env of isolate 92WR021 (pseudovirus) (HIV-1); test: cell-based or functional assay
[6] = target: HIV-1 Env of isolate SF162 (HIV-1) (UniProt P19550); test: cell-based or functional assay
[7] = target: HIV-1 Env of isolate 93WR029 (pseudovirus) (HIV-1); test: cell-based or functional assay
[8] = target: HIV-1 Env of isolate 92UG037 (pseudovirus) (HIV-1); test: cell-based or functional assay
[9] = target: HIV-1 Env of isolate 93IN905 (HIV-1); test: cell-based or functional assay
[10] = target: HIV-1 Env of isolate NL43 (HIV-1); test: cell-based or functional assay
[11] = target: HIV-1 Env of isolate 92UG031 (pseudovirus) (HIV-1); test: cell-based or functional assay
[12] = target: HIV-1 Env of isolate MGRM-Chronic-B-010 (HIV-1); test: cell-based or functional assay
[13] = target: HIV-1 Env of isolate 92WR024 (pseudovirus) (HIV-1); test: cell-based or functional assay
[14] = target: HIV-1 Env of isolate 92WR020 (pseudovirus) (HIV-1); test: cell-based or functional assay
[15] = target: HIV-1 Env of isolate MGRM-Chronic-B-020 (HIV-1); test: cell-based or functional assay
[16] = target: HIV-1 Env of isolate PVO.4 (HIV-1); test: cell-based or functional assay
[17] = target: HIV-1 Env of isolate JRCSF (HIV-1) (UniProt P20871); test: cell-based or functional assay
[18] = target: HIV-1 Env of isolate MGRM-Chronic-B-024 (HIV-1); test: cell-based or functional assay
[19] = target: HIV-1 Env of isolate 93MW959 (HIV-1); test: cell-based or functional assay
[20] = target: HIV-1 Env of isolate SC422661.8 (HIV-1); test: cell-based or functional assay
[21] = target: HIV-1 Env of isolate VLGCB3 (HIV-1); test: cell-based or functional assay
[22] = target: HIV-1 Env of isolate MGRM-Chronic-B-023 (HIV-1); test: cell-based or functional assay
[23] = target: HIV-1 Env of isolate 93UG077 (pseudovirus) (HIV-1); test: cell-based or functional assay
[24] = target: HIV-1 Env of isolate TRO.11 (HIV-1); test: cell-based or functional assay
[25] = target: HIV-1 Env of isolate TRJ04551.58 (HIV-1); test: cell-based or functional assay
[26] = target: HIV-1 Env of isolate MGRM-Chronic-B-018 (HIV-1); test: cell-based or functional assay
[27] = target: HIV-1 Env of isolate MGRM-Chronic-B-012 (HIV-1); test: cell-based or functional assay
[28] = target: HIV-1 Env of isolate 97ZA012 (HIV-1); test: cell-based or functional assay
[29] = target: HIV-1 Env of isolate MGRM-F1-017 (HIV-1); test: cell-based or functional assay
[30] = target: HIV-1 Env of isolate QH0692.42 (HIV-1); test: cell-based or functional assay
[31] = target: HIV-1 Env of isolate 98IN022 (HIV-1); test: cell-based or functional assay
[32] = target: JR-FL gp120 ΔV1/ΔV2 (HIV-1 JR-FL); test: ELISA, antigen-coated wells, mAb titrated; EC50 by nonlinear regression
[33] = target: WT JR-FL gp120 (HIV-1 JR-FL); test: as above
[34] = target: HIV-1 Env of isolate MGRM-AE-006 (pseudovirus) (HIV-1); test: cell-based or functional assay
[35] = target: HIV-1 Env of isolate MGRM-AE-005 (pseudovirus) (HIV-1); test: cell-based or functional assay
[36] = target: HIV-1 Env of isolate MGRM-AE-004 (pseudovirus) (HIV-1); test: cell-based or functional assay
[37] = target: HIV-1 92RW020 Env (HIV-1); test: cell-based or functional assay

Sequence of 4980_N08 (PGT-143) (antibody) (VH): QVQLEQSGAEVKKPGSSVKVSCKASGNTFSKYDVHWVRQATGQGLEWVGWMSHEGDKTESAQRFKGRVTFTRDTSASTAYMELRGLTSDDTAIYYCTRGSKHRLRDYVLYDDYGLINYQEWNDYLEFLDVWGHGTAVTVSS
Sequence of 4980_N08 (PGT-143) (antibody) (VL): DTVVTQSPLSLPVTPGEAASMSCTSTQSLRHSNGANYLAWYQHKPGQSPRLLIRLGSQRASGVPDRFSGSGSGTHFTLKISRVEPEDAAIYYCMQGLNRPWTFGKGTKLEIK
Sequence of 4993_K13 (PGT-141) (antibody) (VH): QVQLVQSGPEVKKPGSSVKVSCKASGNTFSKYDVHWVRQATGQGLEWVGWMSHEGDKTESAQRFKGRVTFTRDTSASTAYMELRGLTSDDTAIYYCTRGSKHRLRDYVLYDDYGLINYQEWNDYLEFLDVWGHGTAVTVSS
Sequence of 4993_K13 (PGT-141) (antibody) (VL): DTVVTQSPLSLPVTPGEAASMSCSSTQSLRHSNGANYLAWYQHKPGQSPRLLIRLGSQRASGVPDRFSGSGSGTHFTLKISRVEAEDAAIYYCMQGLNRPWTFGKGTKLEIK

Row | Substance | IC50 (µg/mL), pseudovirus neutralization [1] [µg/mL] | IC50 (µg/mL), pseudovirus neutralization [2] [µg/mL] | IC50 (µg/mL), pseudovirus neutralization [3] [µg/mL] | IC50 (µg/mL), pseudovirus neutralization [4] [µg/mL] | IC50 (µg/mL), pseudovirus neutralization [5] [µg/mL] | IC50 (µg/mL), pseudovirus neutralization [6] [µg/mL] | IC50 (µg/mL), pseudovirus neutralization [7] [µg/mL] | IC50 (µg/mL), pseudovirus neutralization [9] [µg/mL] | IC50 (µg/mL), pseudovirus neutralization [10] [µg/mL] | IC50 (µg/mL), pseudovirus neutralization [16] [µg/mL] | IC50 (µg/mL), pseudovirus neutralization [18] [µg/mL] | IC50 (µg/mL), pseudovirus neutralization [19] [µg/mL] | IC50 (µg/mL), pseudovirus neutralization [20] [µg/mL] | IC50 (µg/mL), pseudovirus neutralization [21] [µg/mL] | IC50 (µg/mL), pseudovirus neutralization [24] [µg/mL] | IC50 (µg/mL), pseudovirus neutralization [25] [µg/mL] | IC50 (µg/mL), pseudovirus neutralization [28] [µg/mL] | IC50 (µg/mL), pseudovirus neutralization [29] [µg/mL] | IC50 (µg/mL), pseudovirus neutralization [30] [µg/mL] | IC50 (µg/mL), pseudovirus neutralization [31] [µg/mL] | also measured
1 | 5114_A19 (PGT-128) (antibody) | > 50 | 0.02 | 0.011 | > 50 | 0.005 | 0.007 | > 50 | 0.009 | > 50 | 0.005 | > 50 | 0.045 | 1.58 | 0.012 | 0.018 | 0.019 | 0.019 | 11.7 | 0.029 | 0.014 | IC50 (µg/mL), pseudovirus neutralization [8]: 0.006 µg/mL; IC50 (µg/mL), pseudovirus neutralization [11]: > 50 µg/mL; IC50 (µg/mL), pseudovirus neutralization [12]: 0.004 µg/mL; IC50 (µg/mL), pseudovirus neutralization [13]: > 50 µg/mL; IC50 (µg/mL), pseudovirus neutralization [14]: 0.005 µg/mL; IC50 (µg/mL), pseudovirus neutralization [15]: 0.007 µg/mL; IC50 (µg/mL), pseudovirus neutralization [17]: 0.003 µg/mL; IC50 (µg/mL), pseudovirus neutralization [22]: > 50 µg/mL; IC50 (µg/mL), pseudovirus neutralization [23]: 0.014 µg/mL; IC50 (µg/mL), pseudovirus neutralization [26]: 0.02 µg/mL; IC50 (µg/mL), pseudovirus neutralization [27]: 0.026 µg/mL; EC50 [32]: 0.3 µg/mL; EC50 [33]: 0.1 µg/mL
2 | 4980_N08 (PGT-143) (antibody) |  |  |  |  |  |  |  |  |  |  |  |  |  |  |  |  |  |  |  |  | IC50 (µg/mL), single-round pseudovirus neutralization [3]: > 50 µg/mL; IC50 (µg/mL), single-round pseudovirus neutralization [34]: > 50 µg/mL; IC50 (µg/mL), single-round pseudovirus neutralization [5]: > 50 µg/mL; IC50 (µg/mL), single-round pseudovirus neutralization [35]: > 50 µg/mL; IC50 (µg/mL), single-round pseudovirus neutralization [7]: 0.053 µg/mL; IC50 (µg/mL), single-round pseudovirus neutralization [8]: 0.854 µg/mL; IC50 (µg/mL), single-round pseudovirus neutralization [11]: 0.095 µg/mL; IC50 (µg/mL), single-round pseudovirus neutralization [13]: 0.122 µg/mL; IC50 (µg/mL), single-round pseudovirus neutralization [36]: 0.002 µg/mL; IC50 (µg/mL), single-round pseudovirus neutralization [14]: > 50 µg/mL; IC50 (µg/mL), single-round pseudovirus neutralization [23]: > 50 µg/mL; IC50, pseudovirus neutralization [37]: > 10 µg/mL
3 | 4993_K13 (PGT-141) (antibody) |  |  |  |  |  |  |  |  |  |  |  |  |  |  |  |  |  |  |  |  | IC50 (µg/mL), single-round pseudovirus neutralization [3]: > 50 µg/mL; IC50 (µg/mL), single-round pseudovirus neutralization [34]: > 50 µg/mL; IC50 (µg/mL), single-round pseudovirus neutralization [5]: > 50 µg/mL; IC50 (µg/mL), single-round pseudovirus neutralization [35]: > 50 µg/mL; IC50 (µg/mL), single-round pseudovirus neutralization [7]: 0.019 µg/mL; IC50 (µg/mL), single-round pseudovirus neutralization [8]: 1.28 µg/mL; IC50 (µg/mL), single-round pseudovirus neutralization [11]: 0.093 µg/mL; IC50 (µg/mL), single-round pseudovirus neutralization [13]: 0.175 µg/mL; IC50 (µg/mL), single-round pseudovirus neutralization [36]: > 50 µg/mL; IC50 (µg/mL), single-round pseudovirus neutralization [14]: > 50 µg/mL; IC50 (µg/mL), single-round pseudovirus neutralization [23]: > 50 µg/mL; IC50, pseudovirus neutralization [37]: > 10 µg/mL
4 | PGV04 (antibody) | > 50 |  |  |  |  |  |  | 0.332 | 0.028 | 0.454 | 2.52 | > 50 | 0.11 | 0.045 | 0.121 | 0.028 | 0.041 | 2.38 | 1.9 | 5.69 | IC50 (µg/mL), pseudovirus neutralization [34]: > 50 µg/mL; IC50 (µg/mL), pseudovirus neutralization [35]: 0.051 µg/mL; IC50 (µg/mL), pseudovirus neutralization [36]: 0.183 µg/mL
5 | 5136_H01 (PGT-131) (antibody) | > 50 | 6.47 | 1.1 | > 50 | 0.012 | 0.025 | > 50 | 0.177 | > 50 | > 50 | > 50 | > 50 | > 50 | > 50 | 1.91 | 0.088 | 1.81 | > 50 | > 50 | > 50 | IC50 (µg/mL), pseudovirus neutralization [8]: 0.048 µg/mL; IC50 (µg/mL), pseudovirus neutralization [11]: > 50 µg/mL; IC50 (µg/mL), pseudovirus neutralization [12]: 0.016 µg/mL; IC50 (µg/mL), pseudovirus neutralization [13]: > 50 µg/mL; IC50 (µg/mL), pseudovirus neutralization [14]: 0.168 µg/mL; IC50 (µg/mL), pseudovirus neutralization [15]: 0.053 µg/mL; IC50 (µg/mL), pseudovirus neutralization [17]: 0.029 µg/mL; IC50 (µg/mL), pseudovirus neutralization [22]: > 50 µg/mL; IC50 (µg/mL), pseudovirus neutralization [23]: > 50 µg/mL; IC50 (µg/mL), pseudovirus neutralization [26]: > 50 µg/mL; IC50 (µg/mL), pseudovirus neutralization [27]: 15.7 µg/mL; EC50 [33]: 0.4 µg/mL
